B1: library; numbered along this chain (parent)
chain: MAAAGGARLLRAASAVLGGPAGRWLHHAGSRAGSSGLLRNRGPGGSAEASRSLSVSARARSSSEDKITVHFINRDGETLTTKGKVGDSLLDVVVENNLDIDGFGACEGTLACSTCHLIFEDHIYEKLDAITDEENDMLDLAYGLTDRSRLGCQICLTKSMDNMTVRVPETVADARQSIDVGKTS

Variants of: B1
Assay: scaled log2 fold change in cell abundance, elesclomol vs control (0 = silent mean, 1 = nonsense mean) (scaled log2 ratio); higher = higher viability under elesclomol (loss of FDX1 cuproptosis function)
Conditions: glucose 10 mM
Method: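 Deep mutational scan of full-length human FDX1: a pooled saturation-mutagenesis ORF library (every residue 2-184 mutated to all 19 amino acids plus stop, and silent codons where available) was expressed by lentivirus in FDX1-knockout ABC1 (14 days) or HEK293T (11 days) cells grown with elesclomol (ES) or DMSO control. Variant abundance came from ORF sequencing. The log2 fold change (ES vs control, mean of duplicates) was centred on the silent-variant mean (0) and scaled to the nonsense-variant mean (1). Higher values mean greater viability under ES, i.e. loss of FDX1 function in cuproptosis.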

[1] = with ABC1 FDX1 KO, elesclomol 5 nM, 14 days
[2] = with HEK293T FDX1 KO, elesclomol 40 nM, 11 days
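Note: variant abundance is its share of total variant reads in each endpoint sample, from next-generation sequencing of the integrated ORF PCR-amplified out of genomic DNA.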

Variant | scaled log2 fold change [1] | scaled log2 fold change [2]
MMAAGGARLLRAASAVLGGPAGRWLHHAGSRAGSSGLLRNRGPGGSAEASRSLSVSARARSSSEDKITVHFINRDGETLTTKGKVGDSLLDVVVENNLDIDGFGACEGTLACSTCHLIFEDHIYEKLDAITDEENDMLDLAYGLTDRSRLGCQICLTKSMDNMTVRVPETVADARQSIDVGKTS [A2M] | 0.0773 | 0.0994
MTAAGGARLLRAASAVLGGPAGRWLHHAGSRAGSSGLLRNRGPGGSAEASRSLSVSARARSSSEDKITVHFINRDGETLTTKGKVGDSLLDVVVENNLDIDGFGACEGTLACSTCHLIFEDHIYEKLDAITDEENDMLDLAYGLTDRSRLGCQICLTKSMDNMTVRVPETVADARQSIDVGKTS [A2T] | 0.0597 | -0.252
MRAAGGARLLRAASAVLGGPAGRWLHHAGSRAGSSGLLRNRGPGGSAEASRSLSVSARARSSSEDKITVHFINRDGETLTTKGKVGDSLLDVVVENNLDIDGFGACEGTLACSTCHLIFEDHIYEKLDAITDEENDMLDLAYGLTDRSRLGCQICLTKSMDNMTVRVPETVADARQSIDVGKTS [A2R] | 0.187 | 0.489
MNAAGGARLLRAASAVLGGPAGRWLHHAGSRAGSSGLLRNRGPGGSAEASRSLSVSARARSSSEDKITVHFINRDGETLTTKGKVGDSLLDVVVENNLDIDGFGACEGTLACSTCHLIFEDHIYEKLDAITDEENDMLDLAYGLTDRSRLGCQICLTKSMDNMTVRVPETVADARQSIDVGKTS [A2N] | -0.0435 | 0.135
MPAAGGARLLRAASAVLGGPAGRWLHHAGSRAGSSGLLRNRGPGGSAEASRSLSVSARARSSSEDKITVHFINRDGETLTTKGKVGDSLLDVVVENNLDIDGFGACEGTLACSTCHLIFEDHIYEKLDAITDEENDMLDLAYGLTDRSRLGCQICLTKSMDNMTVRVPETVADARQSIDVGKTS [A2P] | -0.0191 | 0.0189
MSAAGGARLLRAASAVLGGPAGRWLHHAGSRAGSSGLLRNRGPGGSAEASRSLSVSARARSSSEDKITVHFINRDGETLTTKGKVGDSLLDVVVENNLDIDGFGACEGTLACSTCHLIFEDHIYEKLDAITDEENDMLDLAYGLTDRSRLGCQICLTKSMDNMTVRVPETVADARQSIDVGKTS [A2S] | -0.234 | 0.215
MQAAGGARLLRAASAVLGGPAGRWLHHAGSRAGSSGLLRNRGPGGSAEASRSLSVSARARSSSEDKITVHFINRDGETLTTKGKVGDSLLDVVVENNLDIDGFGACEGTLACSTCHLIFEDHIYEKLDAITDEENDMLDLAYGLTDRSRLGCQICLTKSMDNMTVRVPETVADARQSIDVGKTS [A2Q] | -0.344 | -0.344
MVAAGGARLLRAASAVLGGPAGRWLHHAGSRAGSSGLLRNRGPGGSAEASRSLSVSARARSSSEDKITVHFINRDGETLTTKGKVGDSLLDVVVENNLDIDGFGACEGTLACSTCHLIFEDHIYEKLDAITDEENDMLDLAYGLTDRSRLGCQICLTKSMDNMTVRVPETVADARQSIDVGKTS [A2V] | 0.0325 | 0.473
